Data from patent US7595173B2, “Low-cost production of peptides” (Dow Global Technologies Inc., priority 2002, dated 2009).

Tested on: E. coli strain BL21 (DE3)
Assay: Antimicrobial activity: dose-dependent inhibition of E. coli growth (standard growth inhibition assay)
Format: cell-based
Protocol: The antimicrobial activity of the cleaved peptides (same samples from Examples 5 and 6) was determined by measuring the dose-dependent inhibition of E. coli growth. The samples were tested for their ability to inhibit the growth of an overnight culture inoculated with E. coli strain BL21 (DE3). AMP samples were diluted serially into water in 96 well plates. Overnight cultures of E. coli BL21 (DE3) cells were diluted 1:50 into LB broth and 250 μl aliquots were transferred into 96-well plates. Each plate was incubated at 37° C. for one hour and then 50 μl of diluted peptide (or water) were added to each well. Each plate was incubated overnight at 37° C. and then the culture density was determined by measuring the apparent absorbance at 600 nm using a Spectromax Plus plate reader.

B1: AB4: trimer comprising a leader segment, three AMPs each separated by a tripeptide linker, and a trailer segment (protein)
chain: MASMTGGQQMGRDPFAKKFAKKFKKFAKKFAKFAFAFGDPFAKKFAKKFKKFAKKFAKFAFAFGDPFAKKFAKKFKKFAKKFAKFAFAFGDPSRRSLRKSSRNLPRSLPSSHSRSVIRIRAPSTSLRPHSSTTTTTTEIRLLTKPERKLSWLLPPLSNN
modifications: Amino acid sequence of the AB4 trimer.
In the case of B1, the “antimicrobial activity of cleaved trimer” value (digested with formic acid at 60° C.) is reported as “potent antimicrobial activity”.

B2: 4A dimer: dimer having two D2A21 antimicrobial peptides connected by the Gly-Asp/Pro cleavage sequence, with leader and His-tag trailer (protein)
chain: MASMTGGQQMGRDPFAKKFAKKFKKFAKKFAKFAFAFGDPFAKKFAKKFKKFAKKFAKFAFAFGDPNSSSVDKLAAALEHHHHHH
modifications: Amino acid sequence of the 4A dimer.
B2 was tested, and the antimicrobial activity (Ni-purified, dialyzed, uncleaved dimer) was “no detectable antimicrobial activity”, the antimicrobial activity (after 50% formic acid treatment, 70° C., 24 hours) was “significant antimicrobial activity” and the antimicrobial activity (water-treated (control), 70° C., 24 hours) was “no activity”.
